# Measured values reported in PMC4868700, “Use of a novel cytotoxic HEXIM1 peptide in the directed breast cancer therapy” (Oncotarget, 2015).
# Entries after “also recorded” stand apart in the source; their conditions may differ. No end group written: not given here.
# Columns and labels:
# Assay type in all cases: cell-based, Human
# MCF7 cells [1] = assay: Internalization and intracellular distribution of FITC-labeled peptides, confocal microscopy; settings: MCF7, FITC-labeled peptides 30 μM, 30 min, washed three times with PBS, Figure 6A
# Experimental: (§1) Figure 6 The un-tagged HEXIM1 BR peptide fails to enter cells by itself (A) MCF7 cells were cultured on glass slides overnight before incubation with the indicated FITC-labeled peptides (30 μM) for 30 min and subsequently analyzed by laser scanning confocal microscopy. Nuclei were visualized by DAPI. Cells treated with vehicle, DMSO (0.5%) were used as control. Representative fluorescent images are shown (bar, 10 μm). (B) The FITC-positive cells were quantified by flow cytometry. Data represent percentage of fluorescence-positive cells in total cell population. Results were summarized as mean ± SD of three independent experiments (***P < 0.0001, Student's t test).
# To determine the ability of FITC-labeled peptides to enter the cells and to visualize intracellular distribution of the peptides, MCF7 cells were plated on 4-chamber glass cover slides (Lab-Tek) to adhere overnight, incubated with FITC-labeled peptides (30 μM) for 30 min, and then washed three times with PBS before being fixed and mounted with DAPI-containing mounting solution (Vectashield). Images were acquired using a Nikon A1R confocal laser scanning microscope equipped with a 60 × oil-immersion objective lens (SBIC-Nikon Imaging Centre).
# MCF7 cells [2] = assay: Internalized fluorescent peptide by flow cytometry; settings: MCF7, FITC-labeled peptides 30 μM, 30 min at 37°C, washed, trypsinized, mean of three independent experiments, Figure 6B
# Experimental: as §1
# MCF7 cells were plated on 6-cm culture dish to allow overnight adherence. FITC-labeled peptides (30 μM) were added to the cells, incubated for 30 min at 37°C, and subsequently washed three times with PBS. The cells were then trypsinized, collected by centrifugation, and finally resuspended in 500 μl ice-cold 2% FBS-containing PBS for flow cytometry analysis.
# MDA-MB-231 cells = assay: Cell viability (CellTiter-Glo); settings: MDA-MB-231, different concentrations overnight, Figure 5B, 5D, S2
# Experimental: (§2) Cells were plated in clear-bottomed white walled 96-well plates (Corning) and incubated overnight. Cells were treated with indicated peptides in 1% FBS-containing media for overnight or indicated timings at 37°C. Cell viability was measured with CellTiter-Glo reagent (Promega) according to the manufacturer's instructions. For cytotoxicity assay, cells were plated in black walled 96-well plates (Corning) to allow them to adhere overnight. Upon treatment with a pan-caspase inhibitor, z-VAD-Fmk (100 μM) (Sigma) and subsequent treatment with LTV-tagged peptides, cytotoxicity induced was determined by CellTox cytotoxicity assay (Promega) 30 minutes after addition of peptides according to the manufacturer's instructions. Luminescence was determined using an Infinite 200 multiplate reader (Tecan).
# MCF7 cells [3] = assay: Cell viability (CellTiter-Glo); settings: MCF7, different concentrations overnight, Figure 5A, 5C
# Experimental: as §2
Substance,internalization and intracellular distribution of fluorescent-labeled peptide (MCF7 cells [1]),percentage of fluorescence-positive cells in total cell population (internalized fluorescent peptide) (MCF7 cells [2]),cell viability (MDA-MB-231 cells),cell viability (MCF7 cells [3])
"BR-FITC: fluorescent-labeled (FITC) BR peptide (QLGKKKHRRRPSKKKRHW; also: FITC label; UniProt O94992 147-164, looked up, fragment)",no fluorescent signal was observed,no entry,–,–
"BR: untagged peptide from the basic region of HEXIM1 containing the HDM2 ubiquitination residues (a.a. 147–164) (QLGKKKHRRRPSKKKRHW; UniProt O94992 147-164, looked up, fragment)",–,–,had no effect on cell viability; also recorded: remained highly viable,had no effect on cell viability
